Target: RNase H (D132N, inactive mutant) (Bacillus halodurans, UniProt Q9KEI9 Q9KEI9:59-196, D132N)
Test: structure; PDB 3TWH, 1.80 A; 5 mM MgCl2, MES pH 6.5, PEG 20000; substrate complex
Details: tags: expressed in BL21(DE3) pLysE, 5 bp duplex with one-base overhang at both ends
Procedure: By using the sitting-drop vapor diffusion method at 25° C., the crystals were readily obtained from a mixture of the crystallization screen [Buffer: 0.1 M MES, pH 6.5; precipitant: 12% (w/v), PEG 20000].
We have synthesized Se-modified DNAs to investigate the DNA/RNA/RNase H complex. […] The complex of RNase H/RNA/Se-DNA (5′-UCGACA-3′/5′-AT-^SeG-TC-^SeGp-3′) was crystallized in a buffer containing 0.1 M MES (pH 6.5) and precipitant (12% w/v, PEG 20000). The crystals were also grown using the sitting drop vapor diffusion method. The crystals appeared within a week and reached their maximum size within a month. Two crystals were used to collect the MAD/SAD data sets. […] After the SAD or MAD dataset is collected from a single crystal, the selenium atoms can be located by direct methods and the phase can be determined similarly to the well-established protein strategy (Elkayam et al., Cell, 150:100-110 (2012); Ferre-D'Amare et al., Nature, 395:567-574 (1998); Hendrickson, Science, 254:51-58 (1991); Hendrickson, Trends Biochem. Sci., 25:637-643 (2000); Schirle and MacRae, Science, 336:1037-1040 (2012); Yang et al., Science 249:1398-1405 (1990)).
The Se-complex structure was finally determined (3TWH; 1.80 Å resolution; FIG. 1) via the selenium anomalous signal and MAD phasing. […] Moreover, the Se-complex structure has been determined by both MAD phasing and molecular replacement. […]

B1: Se-DNA/RNA duplex (DNA-Se, double Se) (DNA:RNA)
DNA: ATGTCG
RNA: UCGACA
modifications: 6-Se-dG at DNA positions 3 and 6; DNA 3'-phosphate
B1: binds.

Reference: US20160279250, “METHODS FOR STRUCTURAL DETERMINATION OF SELENIUM DERIVATIZED NUCLEIC ACID COMPLEXES” (SeNA Research ,Inc., published 2016)
